The values that follow come from PMC5231390, “Two-Component Signaling System VgrRS Directly Senses Extracytoplasmic and Intracellular Iron to Control Bacterial Adaptation under Iron Depleted Stress” (PLoS Pathogens, 2016).

Series [1] addresses phosphorylated VgrR (phosphorylated by acetyl phosphate) (Xanthomonas campestris pv. campestris). Put plainly: MST.
Series [2] concerns the target VgrR (Xanthomonas campestris pv. campestris). Put plainly: MST.
The target in series [3] is T1, VgrR (Xanthomonas campestris, UniProt Q7CLQ6).
T1 construct: gene colR; full-length, C-terminal His6, pET30a in E. coli BL21(DE3), Ni-NTA purified
Put plainly: phosphorylation of VgrR seen as raised VgrS affinity in MST. The format is biochemical. The note with it: phosphodonor; indirect read-out (VgrR-VgrS binding).

For series [4], the target named is T2, VgrS (full-length, inverted membrane vesicles) (Xanthomonas campestris, UniProt Q8P666).
T2 construct: gene colS
The note with it: 100 μM ATP with 10 μCi [γ-32P]ATP, 5 mM MgCl2, pH 7.8, 28°C, labelled compound.

Series [5] concerns the target VgrR (ColR), unphosphorylated (Xanthomonas campestris pv. campestris, UniProt B0RPP4 1-225). The series can be described thus: MST; 10 mM MgCl2; EMSA: 10 mM Tris-HCl pH 7.5, 50 mM KCl, 1 mM DTT, poly(dI-dC), room temp; MST: 50 mM Tris-HCl pH 7.4, 150 mM NaCl, 10 mM MgCl2, 0.05% Tween-20. The note with it: protein: recombinant; tags: C-terminal His6 (pET30a); chain copies: 2; label: 5'-FAM on one strand.

A word on the Kd: it is the equilibrium constant for the complex coming apart. Regarding “VgrS, membrane-embedded, full-length (receptor)”, the Kd in series [1] was determined as 260 nM; in series [2] it was 4300 nM.

With `CC(=O)OP(=O)(O)O` [acetyl phosphate], the “phosphorylation of VgrR seen as raised VgrS affinity in MST” value in series [3] is reported as “Phosphorylation of VgrR by acetyl phosphate significantly increased the VgrR-VgrS binding affinity”.

With `Nc1ncnc2c1ncn2[C@@H]1O[C@H](COP(=O)(O)OP(=O)(O)OP(=O)(O)O)[C@@H](O)[C@H]1O` [ATP], in series [4], the “in vitro autophosphorylation, SDS-PAGE autoradiography” value is given as “VgrS has an autokinase activity by phosphorylating itself in the presence of ATP”.

B1: PtdvA 50 bp, 5'-FAM (MST) (dsDNA)
DNA 1: GCCCGATTTCACGTCTTTCTTCTTTTTCATTAACGGGACTTTAATTCCTG
DNA 2: CAGGAATTAAAGTCCCGTTAATGAAAAAGAAGAAAGACGTGAAATCGGGC
Take B1: the Kd in series [5] stood at 189 ± 6.22 nM.
